Data on 5 proteins can be found in paper PMC12499481, “Design of the Hydrophobic Core of Self‐Assembling Peptide Fibrils for Enhanced Neural Regeneration” (Small Science, 2025).

Some results are limits rather than exact numbers.

First the molecules themselves.
B1: EF‐CV (peptide)
peptide: KVKVQVN
notes: designed variant of enhancing factor-C (EF-C), pattern KXKXQXN with X = V; self-assembling peptide; made on Fmoc-Asn(Trt) Wang resin; also called KVKVQVN; source: synthetic peptide (Fmoc-SPPS, preparative RP-HPLC, purity ≥ 90 %)
B2: EF‐CL (peptide)
peptide: KLKLQLN
notes: designed variant of enhancing factor-C (EF-C), pattern KXKXQXN with X = L; self-assembling peptide; made on Fmoc-Asn(Trt) Wang resin; also called KLKLQLN; source: synthetic peptide (Fmoc-SPPS, preparative RP-HPLC, purity ≥ 90 %)
B3: EF‐CI (peptide)
peptide: KIKIQIN
notes: designed variant of enhancing factor-C (EF-C), pattern KXKXQXN with X = I; self-assembling peptide; made on Fmoc-Asn(Trt) Wang resin; also called KIKIQIN; source: synthetic peptide (Fmoc-SPPS, preparative RP-HPLC, purity ≥ 90 %)
B4: EF‐CF (peptide)
peptide: KFKFQFN
notes: designed variant of enhancing factor-C (EF-C), pattern KXKXQXN with X = F; self-assembling peptide; made on Fmoc-Asn(Trt) Wang resin; also called KFKFQFN; source: synthetic peptide (Fmoc-SPPS, preparative RP-HPLC, purity ≥ 90 %)
B5: EF‐CW (peptide)
peptide: KWKWQWN
notes: designed variant of enhancing factor-C (EF-C), pattern KXKXQXN with X = W; self-assembling peptide; made on Fmoc-Asn(Trt) Wang resin; also called KWKWQWN; source: synthetic peptide (Fmoc-SPPS, preparative RP-HPLC, purity ≥ 90 %)

One data set concerns the molecule itself. In words: dynamic light scattering; self-assembly; peptide diluted from 10 mM DMSO stock into DPBS (6 μM to 1 mM), 24 h incubation, room temperature; derived count rate below 5 kcps defined as no aggregation.
For the protein B1, the aggregation concentration was no more than 100 µM.
Protein B2 returned an aggregation concentration of no more than 100 µM.
Same read-out and setting: as for B3, the figure is no more than 100 µM; as for B4, no more than 100 µM; as for B5, no more than 100 µM.

Another data set deals with the molecule itself. Nature of the data set: conversion rate assay (3 kDa centrifugal filtration, fluorescamine fluorescence); self-assembly; 1 mM peptide incubated 24 h, monomers separated from fibers at 12 000 g for 60 min at 4 °C; filtrated against nonfiltrated fluorescence.
For B1, the conversion rate was 62%.
Same read-out and setting: the result for B2 reads 73%; that for B3, 93%; that for B4, 94%.
Still for that read-out and setting: as for B5, the figure is 94%.
